Measured values published in patent US20230002757A1.

The binders below were run against KLH (Keyhole Limpet Hemocyanin) (keyhole limpet) (assay: ELISA on KLH).

| Binder | EC50 |
| --- | --- |
| NGS602-OLIGO_35 (VHH) VHH: QVSLVESGGGLVQAGGSLRLSCAASGRTFRRSAMGWFRRPPGKEREFVAAITSSGGSIYDPDIAKDRFTISRDNSKTSVYLQMNNLKPEDTAVYYCSLKTTYSGGPYDYTKGPEYDYWGQGTQVTVSS | 0.291 nM |
| NGS602-OLIGO_28 (VHH) VHH: QVQLVESGGGLVRAGGSLRLSCAASGRAFSSYPMGWFRRAPGKEREFVAAISLSGSKQYYVDSVKGRFTISRDNAKNTVSLQMNSLKPEDTAVYYCAALKDGEPPAVDYWGQGTQVTVSS | 0.707 nM |
| NGS602-OLIGO_42 (VHH) VHH: QVQLVESGGGLVQAGGSLRLSCLFSGTFGIYGMGWFRQAPGKAREFVAGVSRHGLTTQYADSVKGRFTISRDNAKNTMYLQMNSLKPEDTADYYCARSRLSASLLVTASDYDYWGQGTQVTVSS | 0.342 nM |
| NGS602-OLIGO_72 (VHH) VHH: QVELVESGGALVQAGGSLKLSCVDSGRSFSSYVVAWFRQAPGKEREFVARVSASGAIRTYADSVRGRFTISRDNTKATVYLQMNSLKSEDTAVFFCAAGGVSTAVHPFKPTSYDFWGQGTQVTVSV | 0.072 nM |
| NGS602-OLIGO_55 (VHH) VHH: QVQLTESGGGLVQAGASLRLSCVASPDTPSTYTIAWFRRAPGKERDFVANIARAGTTITYADSVKGRFTISKDNARNTVYLQMNNLTPADTAIYYCAAYSPGSIIARDSTQYRYWGQGTRVTVSE | 0.241 nM |
| NGS602-OLIGO_30 (VHH) VHH: QVQLVESGGGTVQAGGSLRLSCAASGLTFGSYAMEWYRQAPGKERELVATISSGGNTHYLASVKGRFTISRDNDKNTLYLQMNSLKPEDTAVYYCAAKYGWTGIWYAPSDYVHLGPGTQVTVSS | 0.067 nM |
| NGS602-OLIGO_12 (VHH) VHH: QVQLVESGGGSVQAGGSLRLSCAASGRTFGRHVMAWFRQAPGREREFVAAISGNGRVTNYALSMKGRFTISRDNANDMVYLQMDGLKPEDTAVYSCATRMAFDSDSNFPATYDVWGQGTQVTVSS | 0.181 nM |
| NGS602-OLIGO_31 (VHH) VHH: QVQLVESGGGLVQAGDSLRLSCTASGTTFDRYHMGWFRQAPGMERHVVAHISWSGANTYVADSMKGRFTISRDNAKNTAYLQINNLKFEDTALYYCAAGSYLAVPGSRWDYWGQGTQVTVSS | 1.01 nM |
| NGS602-OLIGO_2 (VHH) VHH: QVQLVESGGGLVQPGGSLRLSCAASESIRSIYAMGWYRQAPGKQRELVALVTDDGSTDYVDSVKGRFTVSRDSAKNTVYLQMNSLKPEDTAVYHCYVEGSTHYDPVREYWGKGTLVTVSS | 1.74 nM |
| NGS602-OLIGO_149 (VHH) VHH: QVQLVESGGGLVQAGDSLRLSCAASGRTFSSYAMAWFRRPPGKAREFVALIRWSNGRTAVVDSVKGRFTASRDNAKNTGYLQMDSLKSEDTAVYYCAACDQALDPPRCNDWGQGTQVTVSS | 0.147 nM |

Second part, the binder after the results:

| EC50 | Binder |
| --- | --- |
| 0.61 nM | NGS602-OLIGO_359 (VHH) VHH: QVQLVESGGGLVQPGGSLRLSCAASGYSLSFYAMGWYRQSPGKQREVVARIAGPGVTNYADSVMGRFTISRDNAKNMVYLQMNSLEPEDTAVYYCNAGGTRWSVGDYWGKGTLVTVSS |
| 220 nM | NGS602-OLIGO_221 (VHH) VHH: QVQLVESGGGLVQAGESLRLSCVASGRTFSSYAMGWFRQAPGQEREFVARISRRGTNTYYADSVRGRFTISRDNAKNTVYLQMNSLKPEDTAVYYCAADRSDVFEKDPGYYDYWGQGAQVTVSS |
| 0.213 nM | NGS602-OLIGO_169 (VHH) VHH: RVQLVESGGGLVQAGGALRLSCVGSGFTFRDTAMAWFRQSPGKEREFVAGFSILSRYADSVKGRFTISRDNDKNTVYLQMNSLKPEDTAVYYCAAGDGTIASVLTTSGVNFWGQGTQVTVSS |
| 0.077 nM | NGS602-OLIGO_185 (VHH) VHH: QVQLVESGGGLVQAGGSLRLSCAASGRTSSRYVMGWFRQSPGKEREFVAAISANGRSTNYAGSVNGRFKISRDGAKDKVDLQMNSLKPEDTAVYFCATNMAFSSSSNFPANYDVWGQGTQVTVSS |
| 0.638 nM | NGS602-OLIGO_152 (VHH) VHH: QVQLVESGGGLVQAGDSLRLSCAASGDNFSRYTFGWFRQAPGKEREFVAVINWSGSYTYVADSVAGRFTMSRDNAKHLVYLQMDSLNTGDTAVYYCAAHWDYGSSSRRQREYDYWGQGTQVIVSS |
| 0.409 nM | NGS602-OLIGO_151 (VHH) VHH: EVQLVESGGGLVQPGGSLRLSCTASGFTLSTSPVSWARQAPGKGPEWLAGIYSDGRTSNLVSLRGRFTISRDNAKNTVYLQMNSLLPEDTALYYCAIGAAAVGGLRGQGTQVTVSS |
| 0.28 nM | NGS602-OLIGO_186 (VHH) VHH: QVQLAESGGGLVQAGDSLRLSCAASGRSVSSYAMGWFRQAPGKEREFVAAISWSGESTHYADSVKGRFTISRDNAENTVYLQMNSLKPEDTAVYYCASYLSGHYYFGIGRDPPFGSWGQGTQVTVSS |
| 1.16 nM | NGS602-OLIGO_205 (VHH) VHH: RVQLVESGGGLVQPGGSLRLSCTASGLPLNTAAMSWYRQTPGKERELVASISITGDSTTYADSVKGRFTISRDNVKNIVYLQMDILKPEDTAVYYCTRAPWDYKYWGQGTQVTVSS |
| 0.195 nM | NGS602-OLIGO_266 (VHH) VHH: QVQLVESGGGLVQAGGSLRLSCAASGRTFFTYPMGWFRQAPGKERQFVAAISGNGDSIDYADSVKGRFTISRDNAKNTLYLQMNSLKPEDAALYYCNAVITHDYTRPLFASWGQGTQVTVSS |
